Article PMC8569915 (ChemSusChem, 2021)

Target: the molecule itself
Assay: SEC

Ac-GIAALEQKCAACEEKNAALEWKIAALEKKG-NH2 (cysteine pairing not given here) [[2SCC-(I9CL12C)2]]
stoichiometry N: 2
